According to patent US20250019439A1 (Adimab, published 2025):

Assays:
ADI-22523 IgG = biological target: T1, ADI-22523 IgG; experiment: BLI; tip anti-ID IgG, solution ADI-22523 IgG
T1 construct: anti-CD3 IgG
Procedure: (§1) ForteBio affinity measurements were performed generally as previously described (Estep et al., MAbs. 2013 5(2):270-8). Briefly, ForteBio affinity measurements were performed by loading antibody IgG or Fabs on-line onto AHC sensors. Sensors were equilibrated off-line in assay buffer for 30 minutes and then monitored on-line for 60 seconds for baseline establishment. For avid binding measurement, sensors with loaded antibodies were exposed to IgG or Fab solutions for 3 minutes, afterwards they were transferred to assay buffer for 3 minutes for off-rate measurement. Kinetics data were fit using a 1:1 binding model in the data analysis software provided by ForteBio to obtain equilibrium dissociation constant (KD=koff/kₒₙ) values. In each column, tip-immobilized antibodies are listed first and solution antibodies second.

ADI-26920 IgG = biological target: T2, ADI-26920 IgG; experiment: SPR Carterra avidity, yeast anti-ID, *koff limit
T2 construct: anti-CD3 IgG
Summary of the method: (§2)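 Anti-CD3 IgGs (100 nM) captured on goat anti-human Fc amine-coupled HC30M chip; anti-idiotype antibodies flowed as analytes, dissociation 300 s, HBSTE running buffer, 25° C. Double-referenced sensorgrams fitted to 1:1 model; glycine pH 1.7 regeneration.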

ADI-26906 IgG = biological target: T3, ADI-26906 IgG; experiment: SPR Carterra avidity, yeast anti-ID, *koff limit
T3 construct: anti-CD3 IgG
Summary of the method: as §2

ADI-26919 = biological target: T4, ADI-26919; experiment: SPR Carterra avidity, yeast anti-ID, *koff limit
T4 construct: anti-CD3 antibody made in CHO cells, captured by anti-human Fc
Summary of the method: as §2

ADI-74965 = biological target: T5, ADI-74965; experiment: SPR Carterra avidity, yeast anti-ID
T5 construct: pH-dependent anti-CD3 antibody made in CHO cells
Summary of the method: as §2

ADI-70330 = biological target: T6, ADI-70330; experiment: SPR Carterra avidity, yeast anti-ID
T6 construct: anti-CD3 antibody made in CHO cells, captured by anti-human Fc
Summary of the method: as §2

ADI-76360 = biological target: T7, ADI-76360; experiment: SPR Carterra avidity, yeast anti-ID
T7 construct: anti-CD3 antibody made in CHO cells, captured by anti-human Fc
Summary of the method: as §2

ADI-26909 = biological target: T8, ADI-26909; experiment: SPR Carterra avidity, yeast anti-ID
T8 construct: anti-CD3 antibody made in CHO cells, captured by anti-human Fc
Summary of the method: as §2

ADI-67450 = biological target: T9, ADI-67450; experiment: SPR Carterra avidity, yeast anti-ID
T9 construct: anti-CD3 antibody made in CHO cells, captured by anti-human Fc
Summary of the method: as §2

ADI-48587 = biological target: T10, ADI-48587; experiment: SPR Carterra avidity, yeast anti-ID
T10 construct: pH-dependent anti-CD3 antibody made in CHO cells
Summary of the method: as §2

ADI-26913 IgG = biological target: T11, ADI-26913 IgG; experiment: SPR Carterra avidity, yeast anti-ID
T11 construct: anti-CD3 IgG
Summary of the method: as §2

ADI-76358 = biological target: T12, ADI-76358; experiment: SPR Carterra avidity, yeast anti-ID
T12 construct: anti-CD3 antibody made in CHO cells, captured by anti-human Fc
Summary of the method: as §2

ADI-76361 = biological target: T13, ADI-76361; experiment: SPR Carterra avidity, yeast anti-ID
T13 construct: anti-CD3 antibody made in CHO cells, captured by anti-human Fc
Summary of the method: as §2

ADI-26912 = biological target: T14, ADI-26912; experiment: SPR Carterra avidity, yeast anti-ID
T14 construct: anti-CD3 antibody made in CHO cells, captured by anti-human Fc
Summary of the method: as §2

ADI-74967 = biological target: T15, ADI-74967; experiment: SPR Carterra avidity, yeast anti-ID
T15 construct: pH-dependent anti-CD3 antibody made in CHO cells
Summary of the method: as §2

ADI-74966 = biological target: T16, ADI-74966; experiment: SPR Carterra avidity, yeast anti-ID
T16 construct: pH-dependent anti-CD3 antibody made in CHO cells
Summary of the method: as §2

ADI-70327 = biological target: T17, ADI-70327; experiment: SPR Carterra avidity, yeast anti-ID
T17 construct: anti-CD3 antibody made in CHO cells, captured by anti-human Fc
Summary of the method: as §2

ADI-70326 = biological target: T18, ADI-70326; experiment: SPR Carterra avidity, yeast anti-ID
T18 construct: anti-CD3 antibody made in CHO cells, captured by anti-human Fc
Summary of the method: as §2

ADI-48650 = biological target: T19, ADI-48650; experiment: SPR Carterra avidity, yeast anti-ID
T19 construct: pH-dependent anti-CD3 antibody made in CHO cells
Summary of the method: as §2

ADI-76359 = biological target: T20, ADI-76359; experiment: SPR Carterra avidity, yeast anti-ID
T20 construct: anti-CD3 antibody made in CHO cells, captured by anti-human Fc
Summary of the method: as §2

ADI-26943 = biological target: T21, ADI-26943; experiment: SPR Carterra avidity, yeast anti-ID
T21 construct: anti-CD3 antibody made in CHO cells, captured by anti-human Fc
Summary of the method: as §2

ADI-67447 = biological target: T22, ADI-67447; experiment: SPR Carterra avidity, yeast anti-ID
T22 construct: anti-CD3 antibody made in CHO cells, captured by anti-human Fc
Summary of the method: as §2

ADI-26921 IgG = biological target: T23, ADI-26921 IgG; experiment: SPR Carterra avidity, yeast anti-ID
T23 construct: anti-CD3 IgG
Summary of the method: as §2

ADI-76362 = biological target: T24, ADI-76362; experiment: SPR Carterra avidity, yeast anti-ID
T24 construct: anti-CD3 antibody made in CHO cells, captured by anti-human Fc
Summary of the method: as §2

ADI-67445 = biological target: T25, ADI-67445; experiment: SPR Carterra avidity, yeast anti-ID
T25 construct: anti-CD3 antibody made in CHO cells, captured by anti-human Fc
Summary of the method: as §2

ADI-74968 = biological target: T26, ADI-74968; experiment: SPR Carterra avidity, yeast anti-ID
T26 construct: pH-dependent anti-CD3 antibody made in CHO cells
Summary of the method: as §2

ADI-26915 = biological target: T27, ADI-26915; experiment: SPR Carterra avidity, yeast anti-ID
T27 construct: anti-CD3 antibody made in CHO cells, captured by anti-human Fc
Summary of the method: as §2

ADI-26916 IgG = biological target: T28, ADI-26916 IgG; experiment: SPR Carterra avidity, yeast anti-ID
T28 construct: anti-CD3 IgG
Summary of the method: as §2

ADI-26924 = biological target: T29, ADI-26924; experiment: SPR Carterra avidity, yeast anti-ID
T29 construct: anti-CD3 antibody made in CHO cells, captured by anti-human Fc
Summary of the method: as §2

ADI-76357 = biological target: T30, ADI-76357; experiment: SPR Carterra avidity, yeast anti-ID
T30 construct: anti-CD3 antibody made in CHO cells, captured by anti-human Fc
Summary of the method: as §2

ADI-50024 = biological target: T31, ADI-50024; experiment: SPR Carterra avidity, yeast anti-ID
T31 construct: anti-CD3 antibody made in CHO cells, captured by anti-human Fc
Summary of the method: as §2

ADI-48576 = biological target: T32, ADI-48576; experiment: SPR Carterra, yeast anti-ID
T32 construct: pH-dependent anti-CD3 antibody made in CHO cells
Summary of the method: as §2

CTL-62240 = biological target: T33, CTL-62240; experiment: SPR Carterra, yeast anti-ID
T33 construct: also called ONO-4685
Summary of the method: as §2

CTL-62228 = biological target: T34, CTL-62228; experiment: SPR Carterra, yeast anti-ID
T34 construct: also called glofitamab
Summary of the method: as §2

ADI-48592 = biological target: T35, ADI-48592; experiment: SPR Carterra, yeast anti-ID
T35 construct: pH-dependent anti-CD3 antibody made in CHO cells
Summary of the method: as §2

CTL-62227 = biological target: T36, CTL-62227; experiment: SPR Carterra, yeast anti-ID
T36 construct: also called odronextamab
Summary of the method: as §2

ADI-22523 Fab = biological target: T37, ADI-22523 Fab; experiment: BLI; tip anti-ID IgG, solution ADI-22523 Fab
T37 construct: anti-CD3 Fab by papain digestion of the IgG
Procedure: as §1

T21 sequence (VH, as listed by the source, chain 1 of 2): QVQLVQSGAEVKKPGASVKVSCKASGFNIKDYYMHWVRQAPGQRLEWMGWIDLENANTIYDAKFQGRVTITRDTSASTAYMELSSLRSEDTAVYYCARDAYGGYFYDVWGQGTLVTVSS
T21 sequence (VL, as listed by the source, chain 2 of 2): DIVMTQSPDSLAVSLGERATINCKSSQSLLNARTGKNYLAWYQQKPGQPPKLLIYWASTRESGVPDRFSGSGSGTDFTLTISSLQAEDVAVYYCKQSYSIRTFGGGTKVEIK
T36 sequence (VH, as listed by the source, chain 1 of 2): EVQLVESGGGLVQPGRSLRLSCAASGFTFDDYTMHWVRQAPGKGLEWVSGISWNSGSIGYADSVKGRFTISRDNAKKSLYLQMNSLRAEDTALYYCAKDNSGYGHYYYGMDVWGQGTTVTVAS
T36 sequence (VL, as listed by the source, chain 2 of 2): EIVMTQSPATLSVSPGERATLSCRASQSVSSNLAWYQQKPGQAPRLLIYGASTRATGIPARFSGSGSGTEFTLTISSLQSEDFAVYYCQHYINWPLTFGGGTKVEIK
T18 sequence (VH, as listed by the source limits assumed, chain 1 of 2): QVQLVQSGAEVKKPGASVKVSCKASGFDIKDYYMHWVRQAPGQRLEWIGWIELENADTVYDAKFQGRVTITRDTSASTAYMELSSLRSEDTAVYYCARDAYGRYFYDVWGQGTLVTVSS
T18 sequence (VL, as listed by the source limits assumed, chain 2 of 2): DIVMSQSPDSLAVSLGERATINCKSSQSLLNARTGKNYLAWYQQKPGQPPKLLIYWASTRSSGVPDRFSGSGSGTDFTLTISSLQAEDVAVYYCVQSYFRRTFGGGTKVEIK
T15 sequence (VH, as listed by the source, chain 1 of 2): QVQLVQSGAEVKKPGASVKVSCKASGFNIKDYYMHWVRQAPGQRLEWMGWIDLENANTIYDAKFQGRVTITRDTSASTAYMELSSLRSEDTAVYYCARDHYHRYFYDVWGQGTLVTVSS
T15 sequence (VL, as listed by the source, chain 2 of 2): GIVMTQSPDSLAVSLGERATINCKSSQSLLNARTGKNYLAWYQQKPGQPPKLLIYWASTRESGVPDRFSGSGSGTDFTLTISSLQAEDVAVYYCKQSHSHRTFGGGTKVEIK
T10 sequence (VL, as listed by the source, chain 2 of 2): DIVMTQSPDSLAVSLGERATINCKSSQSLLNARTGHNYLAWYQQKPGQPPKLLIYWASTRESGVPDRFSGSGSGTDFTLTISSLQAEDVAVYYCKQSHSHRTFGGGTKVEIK
T16 sequence (VL, as listed by the source, chain 2 of 2): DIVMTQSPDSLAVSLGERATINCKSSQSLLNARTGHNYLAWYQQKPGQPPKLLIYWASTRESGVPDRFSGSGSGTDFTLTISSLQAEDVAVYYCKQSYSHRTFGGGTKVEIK
T6 sequence (VH, as listed by the source limits assumed, chain 1 of 2): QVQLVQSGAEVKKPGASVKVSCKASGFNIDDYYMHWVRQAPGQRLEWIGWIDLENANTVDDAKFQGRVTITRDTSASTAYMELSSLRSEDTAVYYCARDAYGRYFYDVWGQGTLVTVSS
T17 sequence (VH, as listed by the source limits assumed, chain 1 of 2): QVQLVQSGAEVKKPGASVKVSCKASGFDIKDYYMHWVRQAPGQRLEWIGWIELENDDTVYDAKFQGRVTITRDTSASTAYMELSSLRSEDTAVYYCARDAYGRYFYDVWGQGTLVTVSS
T27 sequence (VH, as listed by the source, chain 1 of 2): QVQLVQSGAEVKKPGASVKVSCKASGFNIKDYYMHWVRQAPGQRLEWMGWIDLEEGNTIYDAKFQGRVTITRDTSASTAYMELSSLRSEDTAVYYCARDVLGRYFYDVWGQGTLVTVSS
T27 sequence (VL, as listed by the source, chain 2 of 2): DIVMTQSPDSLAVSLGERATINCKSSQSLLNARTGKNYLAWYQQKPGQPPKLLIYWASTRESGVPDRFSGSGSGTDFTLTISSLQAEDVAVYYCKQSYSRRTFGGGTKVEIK
T7 sequence (VH, as listed by the source, chain 1 of 2): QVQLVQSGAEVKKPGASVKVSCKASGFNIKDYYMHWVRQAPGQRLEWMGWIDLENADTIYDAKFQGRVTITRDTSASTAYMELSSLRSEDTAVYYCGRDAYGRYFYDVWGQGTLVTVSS
T7 sequence (VL, as listed by the source, chain 2 of 2): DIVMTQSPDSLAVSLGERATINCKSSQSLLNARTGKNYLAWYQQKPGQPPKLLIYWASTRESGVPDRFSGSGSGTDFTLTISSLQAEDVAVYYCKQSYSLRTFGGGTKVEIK
T28 sequence (VH, as listed by the source, chain 1 of 2): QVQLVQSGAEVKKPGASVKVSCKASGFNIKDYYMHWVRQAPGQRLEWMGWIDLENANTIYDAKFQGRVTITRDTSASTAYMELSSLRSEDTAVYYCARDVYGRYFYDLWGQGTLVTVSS
T29 sequence (VH, as listed by the source, chain 1 of 2): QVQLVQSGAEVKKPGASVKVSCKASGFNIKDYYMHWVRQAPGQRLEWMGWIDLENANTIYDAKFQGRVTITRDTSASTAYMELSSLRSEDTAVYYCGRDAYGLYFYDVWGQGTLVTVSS
T9 sequence (VH, as listed by the source limits assumed, chain 1 of 2): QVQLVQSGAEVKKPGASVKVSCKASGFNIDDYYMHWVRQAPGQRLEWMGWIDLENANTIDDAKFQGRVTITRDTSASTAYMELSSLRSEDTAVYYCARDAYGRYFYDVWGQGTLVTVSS
T5 sequence (VH, as listed by the source, chain 1 of 2): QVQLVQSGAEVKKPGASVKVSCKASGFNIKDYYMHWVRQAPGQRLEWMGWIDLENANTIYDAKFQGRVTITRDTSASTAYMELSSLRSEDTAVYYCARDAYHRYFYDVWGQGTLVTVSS
T13 sequence (VH, as listed by the source, chain 1 of 2): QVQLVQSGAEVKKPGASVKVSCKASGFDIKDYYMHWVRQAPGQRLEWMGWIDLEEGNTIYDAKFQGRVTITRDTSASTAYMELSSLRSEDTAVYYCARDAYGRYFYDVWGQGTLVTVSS
T12 sequence (VH, as listed by the source, chain 1 of 2): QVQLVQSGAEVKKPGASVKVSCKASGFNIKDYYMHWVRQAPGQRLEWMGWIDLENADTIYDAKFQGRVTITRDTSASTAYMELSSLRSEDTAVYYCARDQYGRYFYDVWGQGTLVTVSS
T3 sequence (VH, as listed by the source limits assumed, chain 1 of 2): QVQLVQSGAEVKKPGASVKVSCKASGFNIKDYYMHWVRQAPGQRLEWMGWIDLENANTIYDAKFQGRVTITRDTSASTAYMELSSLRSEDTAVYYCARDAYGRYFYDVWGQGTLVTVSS

B1: ADI-34133 (antibody, V domains shown)
VH: QVQLVQSGAEVKKPGSSVKVSCKASGGTFSSYAISWVRQAPGQGLEWMGGIIPIFGTANYAQKFQGRVTITADESTSTAYMELSSLRSEDTAVYYCARGAPNYYGSGGYDDGWFDPWGQGTLVTVSS
VL: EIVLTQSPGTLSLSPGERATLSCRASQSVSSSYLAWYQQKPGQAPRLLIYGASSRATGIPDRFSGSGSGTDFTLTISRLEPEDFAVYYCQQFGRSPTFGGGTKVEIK
notes: anti-ID IgG
Binder B1 has a Kd (ADI-22523 IgG) of 0.59 nM, a Kd (ADI-26920 IgG) of 0.24 nM and a Kd (ADI-26906 IgG) of 0.3 nM. The Kd (ADI-26919) was 0.35 nM, the Kd (ADI-74965) was 18 nM and the Kd (ADI-70330) was 1.9 nM. It also gave a Kd (ADI-76360) of 1.7 nM, a Kd (ADI-26909) of 1.3 nM and a Kd (ADI-67450) of 2 nM. For the same binder, the Kd (ADI-48587) was 20 nM, the Kd (ADI-26913 IgG) was 1.9 nM and the binding result (ADI-76358) was “binds”. The Kd (ADI-76361) was 0.91 nM, the Kd (ADI-26912) was 52 nM and the Kd (ADI-74967) was 1.9 nM. B1: binds (ADI-74966); binds (ADI-70327); binds (ADI-70326). For the same binder, the Kd (ADI-48650) was 40 nM, the Kd (ADI-76359) was 0.24 nM and the Kd (ADI-26943) was 0.65 nM. The Kd (ADI-67447) was 1.3 nM, the Kd (ADI-26921 IgG) was 0.96 nM and the Kd (ADI-76362) was 2 nM. For the same binder, the Kd (ADI-67445) was 1.1 nM, the Kd (ADI-74968) was 8.2 nM and the binding result (ADI-26915) was “binds”. For the same binder, the binding result (ADI-26916 IgG) was “binds”, the Kd (ADI-26924) was 1.1 nM and the Kd (ADI-76357) was 0.96 nM. The Kd (ADI-50024) was 1.1 nM, the binding result (ADI-48576) was “no binding (tested: up to 200 nM)” and the binding result (CTL-62240) was “no binding (tested: up to 200 nM)”. B1: no binding (tested: up to 200 nM) (CTL-62228); no binding (tested: up to 200 nM) (ADI-48592); no binding (tested: up to 200 nM) (CTL-62227). It also gave a Kd (ADI-22523 Fab) of 9.59 nM.
